In the RNAGym collection of RNA variant scans (doi:10.7554/elife.80360):

B1: Hairpin Ribozyme (parent)
chain: GUCCUCUUUCACGUGCGCGUGAAAGAGAGAAGUGAACCAGAGAAACACACGUUGUGGUAUAUUACCUGGUA

Variants of: B1
Experiment: self-cleavage, relative activity (ratio to wild type); higher = more cleavage; co-transcriptional

Row | Variant | self-cleavage
1 | G40U C50U | 0.11
2 | C12U G19C | 0.955
3 | G34C A49C | 0.186
4 | C50A G57U | 0.128
5 | G27C G40U | 0.0774
6 | A45G G54U | 0.2
7 | G32U A35C | 0.107
8 | A31G U53A | 0.673
9 | C38U C66G | 0.255
10 | U8C A36G | 0.928
11 | A47C U58A | 0.316
12 | U20G G69U | 0.22
13 | U2C G34A | 0.217
14 | C4A A11G | 0.158
15 | G54C C66G | 0.237
16 | G21C G34A | 1.02
17 | G15A C50A | 0.28
18 | C37U A59C | 0.162
19 | C10A A61U | 0.194
20 | A23U G27A | 0.394
21 | G17A G32C | 0.0599
22 | C18G U55C | 0.233
23 | G40A U63A | 0.161
24 | A44U C50A | 0.172

Row | Variant | self-cleavage
25 | A31U G68U | 0.206
26 | G13C A61C | 0.155
27 | A43G G69U | 0.126
28 | G34U A45G | 0.472
29 | A22U A71G | 0.791
30 | G57C U63G | 0.18
31 | A41C G68U | 0.177
32 | G25U A41G | 0.611
33 | A11G A59U | 0.199
34 | G32U C65G | 0.104
35 | G17U G25A | 0.653
36 | G15A A43C | 0.162
37 | G1A G34U | 0.189
38 | U60G C65G | 0.442
39 | U8A G29C | 0.104
40 | G25U G68C | 0.243
41 | G29C A31C | 0.17
42 | A36G G68C | 0.211
43 | C38U G54A | 0.269
44 | C3A C50G | 0.199
45 | U2A A26G | 0.321
46 | U7A U14G | 0.881
47 | U7A U14A | 1.03
48 | G15C U53G | 0.695

Row | Variant | self-cleavage
49 | G29C U63C | 0.094
50 | A23G C48A | 0.123
51 | A23G C48G | 0.159
52 | C3U A36G | 0.505
53 | A43C A61G | 0.147
54 | G21C G51U | 0.865
55 | U53C G68C | 0.267
56 | U53C G68A | 0.328
57 | U8G U52A | 0.752
58 | U5G A31C | 0.091
59 | G27C U58C | 0.214
60 | U7G U52C | 0.961
61 | C3U G15U | 0.474
62 | A35G G51U | 0.949
63 | C4U G51A | 0.533
64 | A23C G51U | 0.993
65 | C6U A44U | 0.12
66 | A49U U70A | 0.237
67 | U5G C65A | 0.268
68 | U14C G15C | 0.932
69 | C10U A24C | 0.613
70 | C10U A24G | 0.885
71 | U5G C50G | 0.165
72 | A11G U67G | 0.354

Row | Variant | self-cleavage
73 | U14A G32C | 0.157
74 | U2C A35C | 0.159
75 | G1C C46G | 0.307
76 | U20C A47C | 0.358
77 | A11C G15A | 0.819
78 | A30C U62G | 0.134
79 | U14A A45U | 0.116
80 | G29A C66A | 0.139
81 | U2A A71C | 0.656
82 | U7G A61U | 0.203
83 | A11C A39C | 0.514
84 | G13A A61C | 0.223
85 | G25C A31C | 0.168
86 | U9A A26U | 0.424
87 | U2C C6U | 0.245
88 | G25U C37A | 0.261
89 | C6A U67C | 0.15
90 | C38A U70G | 0.141
91 | G15U U33A | 0.248
92 | A23G U70G | 0.759
93 | U14C A43U | 0.094
94 | C18A G21C | 0.885
95 | G69A A71G | 0.358
96 | C37G U58G | 0.136

Row | Variant | self-cleavage
97 | A59C U70G | 0.141
98 | U8G U70C | 0.675
99 | G17U A49C | 0.177
100 | A23G C65A | 0.667
101 | G32C A39G | 0.111
102 | A35G C65G | 0.221
103 | U2G C48G | 0.116
104 | G1U A71C | 0.273
105 | A11C A36G | 1.07
106 | U20A U58C | 0.847
107 | C16G U52C | 0.718
108 | C37G G56A | 0.204
109 | G1C U55A | 0.0884
110 | G1C G57A | 0.134
111 | U20C A59U | 0.157
112 | U2G G17U | 0.327
113 | U7G G13C | 0.618
114 | G27A A49G | 0.237
115 | G34U G57U | 1.28
116 | G32A A61G | 0.153
117 | U7G C10G | 0.643
118 | C16U G57A | 0.272
119 | A59G A71G | 0.0933
120 | C16A G27A | 0.36

Row | Variant | self-cleavage
121 | A44U U70A | 0.0951
122 | C3A A59G | 0.0686
123 | A23U A44G | 0.248
124 | G21U A26G | 0.708
125 | A36G C65A | 0.73
126 | U5A G15C | 0.33
127 | C4G A49U | 0.183
128 | A31U C66G | 0.0934
129 | A28G G29C | 0.12
130 | A47C U52C | 0.376
131 | G17U A59G | 0.192
132 | C12U G21C | 0.651
133 | A41U A44U | 0.161
134 | U9G G51A | 0.626
135 | A43G A45U | 0.0816
136 | C6G A41G | 0.47
137 | A43U G56A | 0.155
138 | A47G G57U | 0.179
139 | G19A G34A | 1.02
140 | A49G U67C | 0.125
141 | U20C G57A | 0.167
142 | C4U A41C | 0.469
143 | U14C G29C | 0.17
144 | A36U G54A | 0.212

Row | Variant | self-cleavage
145 | G27C A61U | 0.119
146 | G17U A23G | 0.632
147 | A39U C48A | 0.135
148 | C18A C37G | 0.351
149 | U9A A39U | 0.335
150 | G1A C12A | 0.131
151 | G1A C12G | 0.263
152 | A28U U33G | 0.104
153 | A44C A71G | 0.211
154 | A47C U70C | 0.298
155 | U8C G25C | 0.148
156 | C37U A47U | 0.177
157 | G25C A36C | 0.539
158 | G15U U20G | 0.853
159 | C6G A49G | 0.286
160 | C6U U55A | 0.217
161 | U52C U53A | 1.07
162 | G17C U58G | 0.432
163 | A28U A64G | 0.167
164 | U20C G21C | 0.778
165 | A43C A45G | 0.116
166 | G17C G40C | 0.168
167 | C3A A45U | 0.164
